We go through two molecules from paper PMC9932102, “SVEP1 is an endogenous ligand for the orphan receptor PEAR1” (Nature Communications, 2023).

The term Kd denotes the constant that tells how readily two partners part at equilibrium.

For this assay, the target named is T1, biotinylated SVEP1 (mouse, UniProt A2AVA0 18-3567, biotin on the biotinylation domain (by BirA)).
T1 construct: SVEP1, mouse Svep1 cDNA; biotinylation domain inserted in the C-terminus region upstream of the Myc tag; Same Svep1 construct as m1 with the biotinylation domain added; source: 293F cells, co-transfected with secreted BirA and supplemented with biotin, purified (Nuvia IMAC, Superose 6)
Description: BLI; biotinylated SVEP1 loaded on Octet SA biosensors (20 min, about 0.7 nm shift), quenched with biocytin; PEAR1 or PEAR1 D343N 10-90 nM as analyte; 0.01% Tween 20 in calcium-containing DPBS; 15 min association, 15 min dissociation; global 1:1 fit. Particulars: both partners purified. (Biolayer interferometry detects binding as a change in optical thickness at a sensor tip.)

T1 sequence (A2AVA0 18-3567): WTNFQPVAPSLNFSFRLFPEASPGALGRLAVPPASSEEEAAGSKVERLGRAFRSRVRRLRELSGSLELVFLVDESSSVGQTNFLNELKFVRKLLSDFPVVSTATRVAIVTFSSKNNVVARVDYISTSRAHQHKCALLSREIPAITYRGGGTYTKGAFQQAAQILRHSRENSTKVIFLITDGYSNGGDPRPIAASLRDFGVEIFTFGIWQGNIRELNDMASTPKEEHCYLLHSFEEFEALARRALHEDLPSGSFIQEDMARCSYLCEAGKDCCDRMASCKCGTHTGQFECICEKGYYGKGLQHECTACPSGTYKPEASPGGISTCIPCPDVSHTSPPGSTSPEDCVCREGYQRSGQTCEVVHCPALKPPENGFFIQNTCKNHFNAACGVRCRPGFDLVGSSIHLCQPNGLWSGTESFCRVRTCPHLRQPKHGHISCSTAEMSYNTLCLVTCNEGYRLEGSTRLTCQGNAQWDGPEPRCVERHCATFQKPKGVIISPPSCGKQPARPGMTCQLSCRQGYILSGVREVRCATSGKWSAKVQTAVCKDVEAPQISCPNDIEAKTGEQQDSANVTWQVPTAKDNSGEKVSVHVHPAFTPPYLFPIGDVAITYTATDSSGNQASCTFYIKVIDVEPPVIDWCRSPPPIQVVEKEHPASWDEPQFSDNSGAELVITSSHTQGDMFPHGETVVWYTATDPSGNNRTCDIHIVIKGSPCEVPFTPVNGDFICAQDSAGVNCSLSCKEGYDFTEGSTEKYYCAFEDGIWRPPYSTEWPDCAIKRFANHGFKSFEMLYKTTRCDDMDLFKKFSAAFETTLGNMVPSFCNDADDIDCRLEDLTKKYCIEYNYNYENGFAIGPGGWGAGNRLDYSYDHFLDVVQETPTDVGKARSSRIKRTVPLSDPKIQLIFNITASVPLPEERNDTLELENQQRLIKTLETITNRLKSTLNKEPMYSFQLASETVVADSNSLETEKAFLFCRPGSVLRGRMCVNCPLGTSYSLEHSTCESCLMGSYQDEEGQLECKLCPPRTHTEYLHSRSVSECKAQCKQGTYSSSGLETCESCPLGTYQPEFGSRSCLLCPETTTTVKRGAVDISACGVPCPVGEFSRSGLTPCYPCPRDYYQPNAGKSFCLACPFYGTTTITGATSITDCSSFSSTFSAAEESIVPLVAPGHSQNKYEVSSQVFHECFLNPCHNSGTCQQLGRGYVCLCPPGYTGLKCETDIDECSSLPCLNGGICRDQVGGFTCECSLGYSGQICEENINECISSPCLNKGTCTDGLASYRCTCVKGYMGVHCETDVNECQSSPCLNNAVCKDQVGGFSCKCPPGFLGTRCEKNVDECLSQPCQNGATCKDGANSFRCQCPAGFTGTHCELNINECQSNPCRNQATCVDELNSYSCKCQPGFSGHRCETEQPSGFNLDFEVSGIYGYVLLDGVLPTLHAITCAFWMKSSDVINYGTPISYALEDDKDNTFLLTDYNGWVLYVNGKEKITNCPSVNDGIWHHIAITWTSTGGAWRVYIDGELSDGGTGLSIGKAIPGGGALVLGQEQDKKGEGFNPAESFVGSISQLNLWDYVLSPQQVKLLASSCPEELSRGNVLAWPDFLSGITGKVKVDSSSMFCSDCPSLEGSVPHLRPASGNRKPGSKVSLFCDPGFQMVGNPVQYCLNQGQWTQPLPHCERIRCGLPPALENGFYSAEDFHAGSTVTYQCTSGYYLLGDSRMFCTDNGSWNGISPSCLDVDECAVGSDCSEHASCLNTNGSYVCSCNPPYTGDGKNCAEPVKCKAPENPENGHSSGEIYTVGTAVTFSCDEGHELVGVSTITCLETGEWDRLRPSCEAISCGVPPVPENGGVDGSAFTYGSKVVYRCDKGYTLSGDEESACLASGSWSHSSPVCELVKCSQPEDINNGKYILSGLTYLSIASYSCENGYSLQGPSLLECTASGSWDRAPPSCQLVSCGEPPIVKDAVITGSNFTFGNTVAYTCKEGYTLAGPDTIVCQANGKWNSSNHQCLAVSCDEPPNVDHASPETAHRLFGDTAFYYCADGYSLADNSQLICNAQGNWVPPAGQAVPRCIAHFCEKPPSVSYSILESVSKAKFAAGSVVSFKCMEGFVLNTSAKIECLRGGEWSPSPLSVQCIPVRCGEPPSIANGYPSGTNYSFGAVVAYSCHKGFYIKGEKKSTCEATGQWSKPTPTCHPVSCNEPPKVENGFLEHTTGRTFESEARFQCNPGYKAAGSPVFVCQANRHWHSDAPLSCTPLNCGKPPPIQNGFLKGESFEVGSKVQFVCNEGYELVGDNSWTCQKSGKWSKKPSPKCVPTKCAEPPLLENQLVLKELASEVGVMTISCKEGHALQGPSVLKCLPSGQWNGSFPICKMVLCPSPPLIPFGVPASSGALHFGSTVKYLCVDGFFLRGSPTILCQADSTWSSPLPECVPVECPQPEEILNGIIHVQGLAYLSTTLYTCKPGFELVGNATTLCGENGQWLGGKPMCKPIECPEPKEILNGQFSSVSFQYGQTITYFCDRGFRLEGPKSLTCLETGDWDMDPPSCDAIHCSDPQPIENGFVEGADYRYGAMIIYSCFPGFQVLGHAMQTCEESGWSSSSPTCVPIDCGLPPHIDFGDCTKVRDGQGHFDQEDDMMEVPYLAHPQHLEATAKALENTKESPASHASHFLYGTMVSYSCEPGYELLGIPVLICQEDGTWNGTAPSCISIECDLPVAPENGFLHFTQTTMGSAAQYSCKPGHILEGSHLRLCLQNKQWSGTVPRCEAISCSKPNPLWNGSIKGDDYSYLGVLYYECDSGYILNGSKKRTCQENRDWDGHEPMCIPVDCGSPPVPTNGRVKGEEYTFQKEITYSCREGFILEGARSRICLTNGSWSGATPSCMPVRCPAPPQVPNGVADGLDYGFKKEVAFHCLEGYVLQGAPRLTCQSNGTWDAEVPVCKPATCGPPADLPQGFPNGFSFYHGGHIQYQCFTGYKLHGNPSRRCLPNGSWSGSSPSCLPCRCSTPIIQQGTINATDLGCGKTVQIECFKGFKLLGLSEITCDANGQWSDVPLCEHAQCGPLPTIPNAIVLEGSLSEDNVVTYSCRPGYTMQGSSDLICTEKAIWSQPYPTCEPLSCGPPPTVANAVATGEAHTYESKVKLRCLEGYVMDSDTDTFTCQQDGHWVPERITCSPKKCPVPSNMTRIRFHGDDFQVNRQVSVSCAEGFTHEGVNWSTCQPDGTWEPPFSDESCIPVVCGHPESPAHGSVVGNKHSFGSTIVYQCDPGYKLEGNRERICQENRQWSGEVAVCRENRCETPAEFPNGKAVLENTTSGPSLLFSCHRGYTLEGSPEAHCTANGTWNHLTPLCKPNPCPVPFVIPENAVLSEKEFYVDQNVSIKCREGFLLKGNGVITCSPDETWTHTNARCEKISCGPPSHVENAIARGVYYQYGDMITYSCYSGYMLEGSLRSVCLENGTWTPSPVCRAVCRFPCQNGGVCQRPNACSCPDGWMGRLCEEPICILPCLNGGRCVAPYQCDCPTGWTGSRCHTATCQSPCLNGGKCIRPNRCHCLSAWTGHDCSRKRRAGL

B1: PEAR1 (analyte of the BLI on biotinylated SVEP1) (receptor)
chain: LNPSDPNTCSFWESFTTTTKESHSRPFSLLPSEPCERPWEGPHTCPQPTVVYRTVYRQVVKTDHRQRLQCCHGFYESRGFCVPLCAQECVHGRCVAPNQCQCVPGWRGDDCSSECAPGMWGPQCDKPCSCGNNSSCDPKSGVCSCPSGLQPPNCLQPCTPGYYGPACQFRCQCHGAPCDPQTGACFCPAERTGPSCDVSCSQGTSGFFCPSTHSCQNGGVFQTPQGSCSCPPGWMGTICSLPCPEGFHGPNCSQECRCHNGGLCDRFTGQCRCAPGYTGDRCREECPVGRFGQDCAETCDCAPDARCFPANGACLCEHGFTGDRCTDRLCPDGFYGLSCQAPCTCDREHSLSCHPMNGECSCLPGWAGLHCNESCPQDTHGPGCQEHCLCLHGGVCQATSGLCQCAPGYTGPHCASLCPPDTYGVNCSARCSCENAIACSPIDGECVCKEGWQRGNCSVPCPPGTWGFSCNASCQCAHEAVCSPQTGACTCTPGWHGAHCQLPCPKGQFGEGCASRCDCDHSDGCDPVHGRCQCQAGWMGARCHLSCPEGLWGVNCSNTCTCKNGGTCLPENGNCVCAPGFRGPSCQRSCQPGRYGKRCVPCKCANHSFCHPSNGTCYCLAGWTGPDCSQPCPPGHWGENCAQTCQCHHGGTCHPQDGSCICPLGWTGHHCLEGCPLGTFGANCSQPCQCGPGEKCHPETGACVCPPGHSGAPCRIGIQEPFTVMPTTPVAYNSL
In the case of B1, the dissociation constant (Kd) was 0.708 ± 0.003 nM.

B2: PEAR1 D343N (receptor, human, UniProt Q5VY43 21-755, looked up)
chain: LNPSDPNTCSFWESFTTTTKESHSRPFSLLPSEPCERPWEGPHTCPQPTVVYRTVYRQVVKTDHRQRLQCCHGFYESRGFCVPLCAQECVHGRCVAPNQCQCVPGWRGDDCSSECAPGMWGPQCDKPCSCGNNSSCDPKSGVCSCPSGLQPPNCLQPCTPGYYGPACQFRCQCHGAPCDPQTGACFCPAERTGPSCDVSCSQGTSGFFCPSTHSCQNGGVFQTPQGSCSCPPGWMGTICSLPCPEGFHGPNCSQECRCHNGGLCDRFTGQCRCAPGYTGDRCREECPVGRFGQDCAETCDCAPDARCFPANGACLCEHGFTGNRCTDRLCPDGFYGLSCQAPCTCDREHSLSCHPMNGECSCLPGWAGLHCNESCPQDTHGPGCQEHCLCLHGGVCQATSGLCQCAPGYTGPHCASLCPPDTYGVNCSARCSCENAIACSPIDGECVCKEGWQRGNCSVPCPPGTWGFSCNASCQCAHEAVCSPQTGACTCTPGWHGAHCQLPCPKGQFGEGCASRCDCDHSDGCDPVHGRCQCQAGWMGARCHLSCPEGLWGVNCSNTCTCKNGGTCLPENGNCVCAPGFRGPSCQRSCQPGRYGKRCVPCKCANHSFCHPSNGTCYCLAGWTGPDCSQPCPPGHWGENCAQTCQCHHGGTCHPQDGSCICPLGWTGHHCLEGCPLGTFGANCSQPCQCGPGEKCHPETGACVCPPGHSGAPCRIGIQEPFTVMPTTPVAYNSL
notes: PEAR1 with the natural human missense variant p.D343N (rs147639000) in an EGF-like domain of the ectodomain; the construct is not described; as a soluble analyte it is probably an ectodomain (surmise); also called PEAR1 p.D343N; rs147639000
For B2, the Kd stood at 1.76 ± 0.006 nM.
